Test results taken from the supplement of paper PMC9732359.
± gives the uncertainty stated by the source.

Test: protein stability index of a GFP-peptide fusion (yeast GPS) (PSI 1-4); higher = more stable; sorted into four equal gates, so the index is relative within each strain
Conditions: pdr5∆
Summary of the method: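 Each library plasmid carries Cherry plus GFP with a tiled 17-residue yeast protein peptide fused downstream, and the pooled library was carried in yeast. Mid-log cultures in leucine-free medium were sorted into four equal gates by GFP/Cherry ratio. Reads from Illumina sequencing of PCR-amplified plasmids from each gate were assigned to strains by barcodes. Per peptide, the protein stability index was computed as the summed products of gate read frequency and gate number.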

Row | Sequence | protein stability index
1 | HLAVVCVDDNSKISFID [SSN2] | 2.84 ± 0.17
2 | HLDSFNYFVDTDLKKII [RET1] | 2.85 ± 0.08
3 | HLIKCFFKITLQRASSK [ITC1] | 1.19 ± 0.047
4 | HMISQEGIKETQAKRIF [SWI1] | 3.53 ± 0.21
5 | HMSTYLKIYKVGDIVDI [RPL21B] | 1.64 ± 0.037
6 | HNGRDKIQFHIHFADVA [RGR1] | 1.79 ± 0.049
7 | HNVFSKEQTIQLPSKFT [RPN14] | 2.79 ± 0.085
8 | HPFGHALVAGIERYPLK [RPL27A] | 2.3 ± 0.098
9 | HPFVFEEVEDQINPTRE [SNF2] | 3.5 ± 0.13
10 | HPKIVKKHTKKFKRHHS [RPL32] | 3.06 ± 0.059
11 | HPSIYTQVFNILLQHKE [POP1] | 2.6 ± 0.074
12 | HQHGDKVDIFEIPETGE [FAS2] | 2.75 ± 0.28
13 | HQQQLQQPHYIQRTRER [DSN1] | 3.08 ± 0.042
14 | HRDKNKMDMICRNINRK [DIS3] | 2.99 ± 0.17
15 | HRIGQKKQVHVYRFVTE [ISW2] | 2.33 ± 0.051
16 | HRLIATHTNLERDEQKR [SNF2] | 3.25 ± 0.074
17 | HRLSILSHYAKIRPWRT [RPO31] | 2.77 ± 0.066
18 | HSFEDAHTPMLQMYSKI [FAS1] | 3.03 ± 0.086
19 | HSKFRSSSGNTWSLILN [YML031W/NDC1] | 2.72 ± 0.099
20 | HSLAYLLENFANFKTSK [RRP6] | 2.05 ± 0.14
21 | HSNRCIVFSKKEPFPHS [CSN12] | 2.85 ± 0.047
22 | HTGKKLMAQIFFGPTYY [RPB2] | 2.07 ± 0.043
23 | HTTQIVNLEDNTQDLLL [YML103C/NUP188] | 3.35 ± 0.12
24 | HTVFTSVNKNKRQAYAV [RPL4A] | 1.17 ± 0.2
25 | HVEKERASTELSQSRIK [YIL149C/MLP2] | 2.93 ± 0.066
26 | HVESDKITAKTQHEEEE [IRR1] | 2.96 ± 0.088

Row | Sequence | protein stability index
27 | HVVTREKGPQVCAKLFG [RPO21] | 2.81 ± 0.079
28 | HYERTQTKENKRCVGVI [RPN8] | 2.69 ± 0.1
29 | HYVSTSKISQMAQNKTH [YLR018C/POM34] | 2.02 ± 0.035
30 | HYVVLDTNVVLQAIDLL [DIS3] | 2.49 ± 0.073
31 | IAASYHYPEIEDLVDRI [RPP0] | 1.89 ± 0.16
32 | IADELMKLDDSSKTRNV [ITC1] | 2.09 ± 0.12
33 | IADKTTYDKETITDLIE [SIR4] | 3.33 ± 0.064
34 | IAEVGNKRWKVDIGGKQ [RRP4] | 3.32 ± 0.14
35 | IAKPNTANAKHTSSNSR [SMB1] | 2.73 ± 0.094
36 | IAPRPLDLLRPVVRAPT [RPL13A] | 3.15 ± 0.089
37 | IASTEKPENKTDKVSLS [SIR4] | 3.1 ± 0.09
38 | IAVLRSKEWFQLDDEDF [FAS1] | 2.09 ± 0.041
39 | ICLYSSFQKNSLHNTEK [AAR2] | 2.24 ± 0.058
40 | IDADSLEDIYTSAHEAI [RPL5] | 3.02 ± 0.11
41 | IDAMKAVAEAYNNRSLL [RPN6] | 2.07 ± 0.068
42 | IDDANVTRKQEDARRNP [RPC37] | 1.8 ± 0.081
43 | IDEHIDLGIKYDPSIGI [RPL11A] | 3.06 ± 0.039
44 | IDEIDAIGTKRYDSNSG [RPT2] | 2.26 ± 0.14
45 | IDGKTVSYKDYSIFLEN [SMC1] | 3.07 ± 0.057
46 | IDGKVIQAGKFDNKSTS [SNF2] | 1.42 ± 0.064
47 | IDIINKLILHAIHIFES [YML103C/NUP188] | 1.56 ± 0.058
48 | IDKLMLSPSDQFAPAFL [SSN2] | 2.24 ± 0.1
49 | IDMGEDKENVPVEKVKE [DPB4] | 3.45 ± 0.14
50 | IDPSVTMMTVEEKPDVT [RPT1] | 2.58 ± 0.059
51 | IDQDIHGIVFQHPFPLA [SSN2] | 2.25 ± 0.051
52 | IDQVMMSVSDNDQALIK [RET1] | 3.06 ± 0.066
